The target in this experiment is endogenous βARK1 of HEK 293 cells (UniProt P25098). Briefly: cell-based or functional assay.
Chain of endogenous βARK1 of HEK 293 cells (P25098 whole entry): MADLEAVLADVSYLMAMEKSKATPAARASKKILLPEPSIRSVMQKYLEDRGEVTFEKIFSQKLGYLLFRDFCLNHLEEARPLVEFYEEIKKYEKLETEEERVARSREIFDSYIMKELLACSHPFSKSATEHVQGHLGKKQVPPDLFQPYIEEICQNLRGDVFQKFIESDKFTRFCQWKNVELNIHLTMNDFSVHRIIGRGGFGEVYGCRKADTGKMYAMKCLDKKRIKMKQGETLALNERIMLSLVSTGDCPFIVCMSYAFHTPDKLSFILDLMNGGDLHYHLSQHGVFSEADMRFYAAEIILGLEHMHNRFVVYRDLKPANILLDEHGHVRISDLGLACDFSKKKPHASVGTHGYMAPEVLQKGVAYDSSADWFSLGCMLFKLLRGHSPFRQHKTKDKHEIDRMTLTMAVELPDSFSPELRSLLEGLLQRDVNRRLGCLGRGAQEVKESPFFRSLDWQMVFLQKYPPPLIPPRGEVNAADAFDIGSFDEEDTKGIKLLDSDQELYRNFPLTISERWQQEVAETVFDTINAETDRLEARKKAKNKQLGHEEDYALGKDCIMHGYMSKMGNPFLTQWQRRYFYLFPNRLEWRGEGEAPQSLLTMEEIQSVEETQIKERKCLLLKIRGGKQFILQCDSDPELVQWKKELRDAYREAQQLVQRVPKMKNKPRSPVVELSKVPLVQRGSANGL

In turn, “endogenous PI3K of HEK 293 cells (enzyme)” returned a rate of agonist-dependent β2AR sequestration (125I-Cyanopindolol binding) with HEAT protein overexpressed of more than 60%.

(Values after patent US20060026702A1, “Phosphoinositide 3-kinase mediated inhibition of GPCRs” (DUKE UNIVERSITY, priority 2002, published 2006).)
